# According to the RNAGym collection of RNA variant scans (doi:10.1093/nar/gkz1192):
# B1: CPEB3 Ribozyme (parent)
# chain: UAACAGGGGGCCACAGCAGAAGCGUUCACGUCGCAGCCCCUGUCAGAUUCUGGUGAAUCUGCGAAUUCUGCUGUAUAUCUC
# Variants of: B1
# Assay: self-cleavage, relative activity (ratio to wild type); higher = more cleavage; in vitro, sequencing
# In short: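 Relative activity was defined as the cleaved/total read fraction for a variant divided by the same fraction for the unmutated ribozyme. CPEB3 self-cleaving ribozyme libraries were made by rounds of error-prone PCR, barcoded, and transcribed in vitro with T7 RNA polymerase for 5 hours at 37°C, and cleavage ran through transcription plus a 15 min DNase I step before EDTA. Illumina sequencing of template-switched reverse transcripts gave the reads, and DNA sequencing mapped the barcodes. Averages come from three batches, using variants with at least 5 reads.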
row,Variant,self-cleavage
1,UAACAGGGGGCCACAGCAGACGCGUUCACGUCGCAGCCCCCGUCAGAUUCUGGUGAAUCUGCGAAUUCUGCUGUAUAUCUC [A21C U41C],0.13
2,UAACAGGGGGCCACAGCAGAGGCGUUCACGUCGCAGCCCCUGUCAGAUUCUGGUGAAUCUGCGAGUUCUGCUGUAUAUCUC [A21G A65G],0.28
3,UAACAGGGGGCCACAGCAGAGGCGUUCACGUCGCAGCCCCUGUCAGAUUCUGGUGAAUCUGCGAUUUCUGCUGUAUAUCUC [A21G A65U],0.24
4,UAACAGGGGGCCACAGCAGAGGCGUUCACGUCGCAGCCCCUGUCAGAUUCUGGUGAAUCUGCGACUUCUGCUGUAUAUCUC [A21G A65C],0.12
5,UAACAGGGGGCCACAGCAGAGGCGUUCACGUCGCAGCCCCUGUCAGAUUCUGGUGUAUCUGCGAAUUCUGCUGUAUAUCUC [A21G A56U],0.41
6,UAACAGGGGGCCACAGCAGAGGCGUUCACGUCGCAGCCCCUGUCAGAUUCUGGUGGAUCUGCGAAUUCUGCUGUAUAUCUC [A21G A56G],0.4
7,UAACAGGGGGCCACAGCAGAGGCGUUCACGUCGCAGCCCCUGUCAGAUUCUGGUGCAUCUGCGAAUUCUGCUGUAUAUCUC [A21G A56C],0.36
8,UAACAGGGGGCCACAGCAGACGCGUUCACGUCGCAGCCCCUGUCAGAUUCUGGUGAAUCGGCGAAUUCUGCUGUAUAUCUC [A21C U60G],0.15
9,UAACAGGGGGCCACAGCAGACGCGUUCACGUCGCAGCCCCUGUCAGAUUCUGGUGAAUCAGCGAAUUCUGCUGUAUAUCUC [A21C U60A],0.36
10,UAACAGGGGGCCACAGCAGACGCGUUCACGUCGCAGCCCCUGUCAGAUUCUGGUGAAUCCGCGAAUUCUGCUGUAUAUCUC [A21C U60C],0.07
11,UAACAGGGGGCCACAGCAGAGGCGUUCACGUCGCAGCCCCUGUCAGAUUCUGGUGAAUCUGCGGAUUCUGCUGUAUAUCUC [A21G A64G],0.42
12,UAACAGGGGGCCACAGCAGAGGCGUUCACGUCGCAGCCCCUGUCAGAUUCUGGUGAAUCUGCGUAUUCUGCUGUAUAUCUC [A21G A64U],0.26
13,UAACAGGGGGCCACAGCAGAGGCGUUCACGUCGCAGCCCCUGUCAGAUUCUGGUGAAUCUGCGCAUUCUGCUGUAUAUCUC [A21G A64C],0.37
14,UAACAGGGGGCCACAGCAGACGCGUUCACGUCGCAGCCCCUGUCAGAUUCUGGUGAAUCUGCGAGUUCUGCUGUAUAUCUC [A21C A65G],0.34
15,UAACAGGGGGCCACAGCAGAGGCGUUCACGUCGCAGCCCCUGUCAGAUUCUGGUGAAUCUGCGAAUUCUGCUGUAUAUCUC [A21G],0.64
16,UAACAGGGGGCCACAGCAGAGGCGUUCACGUCGCAGCCCCUGUCUGAUUCUGGUGAAUCUGCGAAUUCUGCUGUAUAUCUC [A21G A45U],0.32
17,UAACAGGGGGCCACAGCAGAGGCGUUCACGUCGCAGCCCCUGUCCGAUUCUGGUGAAUCUGCGAAUUCUGCUGUAUAUCUC [A21G A45C],0.25
18,UAACAGGGGGCCACAGCAGAGGCGUUCACGUCGCAGCCCCUGUCGGAUUCUGGUGAAUCUGCGAAUUCUGCUGUAUAUCUC [A21G A45G],0.44
19,UAACAGGGGGCCACAGCAGACGCGUUCACGUCGCAGCCCCUGCCAGAUUCUGGUGAAUCUGCGAAUUCUGCUGUAUAUCUC [A21C U43C],0.19
20,UAACAGGGGGCCACAGCAGACGCGUUCACGUCGCAGCCCCUGACAGAUUCUGGUGAAUCUGCGAAUUCUGCUGUAUAUCUC [A21C U43A],0.35
21,UAACAGGGGGCCACAGCAGACGCGUUCACGUCGCAGCCCCUGUCAGAUUCUGUUGAAUCUGCGAAUUCUGCUGUAUAUCUC [A21C G53U],0.15
22,UAACAGGGGGCCACAGCAGACGCGUUCACGUCGCAGCCCCUGUCAGAUUCUGGUGAAUCUGCGAAUUCUGCUGCAUAUCUC [A21C U74C],0.08
23,UAACAGGGGGCCACAGCAGACGCGUUCACGUCGCAGCUCCUGUCAGAUUCUGGUGAAUCUGCGAAUUCUGCUGUAUAUCUC [A21C C38U],0.16

row,Variant,self-cleavage
1,UAACAGGGGGCCACAGCAGACGCGUUCACGUCGCAGCACCUGUCAGAUUCUGGUGAAUCUGCGAAUUCUGCUGUAUAUCUC [A21C C38A],0
2,UAACAGGGGGCCACAGCAGACGCGUUCACGUCGCAGCCCCUGUCAGAUUCUGGUGAAUCUGCGUAUUCUGCUGUAUAUCUC [A21C A64U],0.07
3,UAACAGGGGGCCACAGCAGACGCGUUCACGUCGCAGCCCCUGUCAGAUUCUGGUGAAUCUGCGCAUUCUGCUGUAUAUCUC [A21C A64C],0.17
4,UAACAGGGGGCCACAGCAGACGCGUUCACGUCGCAGCCCCUGUCAGACUCUGGUGAAUCUGCGAAUUCUGCUGUAUAUCUC [A21C U48C],0.19
5,UAACAGGGGGCCACAGCAGACGCGUUCACGUCGCAGCCCCUGUCAGAUUCUGGUGAAUCUGCGAAUCCUGCUGUAUAUCUC [A21C U67C],0.1
6,UAACAGGGGGCCACAGCAGAGGCGUUCACGUCGCAGCCCCUGUCAGUUUCUGGUGAAUCUGCGAAUUCUGCUGUAUAUCUC [A21G A47U],0.36
7,UAACAGGGGGCCACAGCAGAGGCGUUCACGUCGCAGCCCCUGUCAGGUUCUGGUGAAUCUGCGAAUUCUGCUGUAUAUCUC [A21G A47G],0.42
8,UAACAGGGGGCCACAGCAGAGGCGUUCACGUCGCAGCCCCUGUCAGAUUCUGGUGAAUCUGCGAAUUCUGCUGUGUAUCUC [A21G A75G],0.56
9,UAACAGGGGGCCACAGCAGAGGCGUUCACGUCGCAGCCCCUGUCAGAUUCUGGUGAAUCUGCGAAUUCUGCUGUCUAUCUC [A21G A75C],0.62
10,UAACAGGGGGCCACAGCAGAGGCGUUCACGUCGCAGCCCCUGUCAGAUUCUGGUGAAUCUGCGAAUUCUGCUGUUUAUCUC [A21G A75U],0.72
11,UAACAGGGGGCCACAGCAGACGCGAUCACGUCGCAGCCCCUGUCAGAUUCUGGUGAAUCUGCGAAUUCUGCUGUAUAUCUC [A21C U25A],0.28
12,UAACAGGGGGCCACAGCAGACGCGCUCACGUCGCAGCCCCUGUCAGAUUCUGGUGAAUCUGCGAAUUCUGCUGUAUAUCUC [A21C U25C],0.28
13,UAACAGGGGGCCACAGCAGACGCGUUCACGUCGCAGCCCCUGUCAGAUUCUGGUGAAUCUGCGAAUUCUGCUGUAUAUCUG [A21C C81G],0.3
14,UAACAGGGGGCCACAGCAGACGCGUUCACGUCGCAGCCCCUGUCAGAUGCUGGUGAAUCUGCGAAUUCUGCUGUAUAUCUC [A21C U49G],0.11
15,UAACAGGGGGCCACAGCAGACGCGUUCACGUCGCAGCCCCUGUCAGAUUCUGGUGAAUCUGCGAAUUCUGCUGUAUACCUC [A21C U78C],0.37
16,UAACAGGGGGCCACAGCAGACGCGUUCACGUCGCAGCCCCUGUCAGAUUCUGGUCAAUCUGCGAAUUCUGCUGUAUAUCUC [A21C G55C],0.21
17,UAACAGGGGGCCACAGCAGACGCGUUCACGUCGCAGCCCCUGUCAGAUUCUGGUGAAUCUGCGAAUUCCGCUGUAUAUCUC [A21C U69C],0.2
18,UAACAGGGGGCCACAGCAGACGCGUUCACGUCGCAGCCCCUGUCAGAUUCUGGUGAAUCUGCGAAUUCAGCUGUAUAUCUC [A21C U69A],0.17
19,UAACAGGGGGCCACAGCAGACGCGUUCACGUCGCAGCCCCUGUCAGAUUCUGGUGAAUCUGCGAAUUCUGCUGUAUAUCCC [A21C U80C],0.1
20,UAACAGGGGGCCACAGCAGACGCGUUCACGUCGCAGCCCCUGUCAGAUUCUGGUGAAUCUGCGAAUUCUGCUGUAUAUCAC [A21C U80A],0.18
21,UAACAGGGGGCCACAGCAGAGGCGUUCCCGUCGCAGCCCCUGUCAGAUUCUGGUGAAUCUGCGAAUUCUGCUGUAUAUCUC [A21G A28C],0.3
22,UAACAGGGGGCCACAGCAGAGGCGUUCUCGUCGCAGCCCCUGUCAGAUUCUGGUGAAUCUGCGAAUUCUGCUGUAUAUCUC [A21G A28U],0.38
23,UAACAGGGGGCCACAGCAGAGGCGUUCGCGUCGCAGCCCCUGUCAGAUUCUGGUGAAUCUGCGAAUUCUGCUGUAUAUCUC [A21G A28G],0.35

row,Variant,self-cleavage
1,UAACAGGGGGCCACAGCAGACGCGUUCACGUCGCAGCCCCUGUCAGAUUCCGGUGAAUCUGCGAAUUCUGCUGUAUAUCUC [A21C U51C],0.19
2,UAACAGGGGGCCACAGCAGACGCGUUCACGUCGCAGCCCCUGUCAGAUUCAGGUGAAUCUGCGAAUUCUGCUGUAUAUCUC [A21C U51A],0.15
3,UAACAGGGGGCCACAGCAGACGCGUACACGUCGCAGCCCCUGUCAGAUUCUGGUGAAUCUGCGAAUUCUGCUGUAUAUCUC [A21C U26A],0.23
4,UAACAGGGGGCCACAGCAGACGCGUUCACGUCGCAGCCCCUGUCAGAUUCUGGUGAAUCUGCGAAUUCUGAUGUAUAUCUC [A21C C71A],0.09
5,UAACAGGGGGCCACAGCAGACGCGUUCACGUCGCAGCCCCUGUCAGAUUCUGGUGAAUCUGCGAAUUCUGGUGUAUAUCUC [A21C C71G],0.11
6,UAACAGGGGGCCACAGCAGAGGCGUUCACGUCGCAGCCCCUGUCAGAUUCUGGUGAUUCUGCGAAUUCUGCUGUAUAUCUC [A21G A57U],0.38
7,UAACAGGGGGCCACAGCAGAGGCGUUCACGUCGCAGCCCCUGUCAGAUUCUGGUGAGUCUGCGAAUUCUGCUGUAUAUCUC [A21G A57G],0.49
8,UAACAGGGGGCCACAGCAGACGCGUUCACGUCGCAGCCCCUGUCAGAUUCUGGUGAAUCUGCGAAUUCUGCAGUAUAUCUC [A21C U72A],0.19
9,UAACAGGGGGCCACAGCAGACGCGUUCACGUCGCAGCCCCUGUCAAAUUCUGGUGAAUCUGCGAAUUCUGCUGUAUAUCUC [A21C G46A],0.37
10,UAACAGGGGGCCACAGCAGACGCGUUCACGUCGCAGCCCCUGUCAGAUUCUGGUGAAUCUGCGAAUUCUGCUAUAUAUCUC [A21C G73A],0.35
11,UAACAGGGGGCCACAGCAGACGCGUUCACGUCGCAGCCCCUGUCAGGUUCUGGUGAAUCUGCGAAUUCUGCUGUAUAUCUC [A21C A47G],0.3
12,UAACAGGGGGCCACAGCAGACGCGUUCACGUCGCAGCCCCUGUCAGAUUCUGGUGGAUCUGCGAAUUCUGCUGUAUAUCUC [A21C A56G],0.3
13,UAACAGGGGGCCACAGCAGACGCGUUCACGUCGCAGCCCCUGUCAGAUUCUGGUGUAUCUGCGAAUUCUGCUGUAUAUCUC [A21C A56U],0.16
14,UAACAGGGGGCCACAGCAGACGCGUUCACGUCGCAGCCCCUGUCAGAUUCUGGCGAAUCUGCGAAUUCUGCUGUAUAUCUC [A21C U54C],0.23
15,UAACAGGGGGCCACAGCAGACGCGUUCACGUCGCAGCCCCUGUCAGAUUCUGGAGAAUCUGCGAAUUCUGCUGUAUAUCUC [A21C U54A],0.17
16,UAACAGGGGGCCACAGCAGAGGCGUUCACGUCGCGGCCCCUGUCAGAUUCUGGUGAAUCUGCGAAUUCUGCUGUAUAUCUC [A21G A35G],1.16
17,UAACAGGGGGCCACAGCAGAGGCGUUCACGUCGCCGCCCCUGUCAGAUUCUGGUGAAUCUGCGAAUUCUGCUGUAUAUCUC [A21G A35C],0.13
18,UAACAGGGGGCCACAGCAGAGGCGUUCACGUCGCUGCCCCUGUCAGAUUCUGGUGAAUCUGCGAAUUCUGCUGUAUAUCUC [A21G A35U],0.27
19,UAACAGGGGGCCACAGCAGACGGGUUCACGUCGCAGCCCCUGUCAGAUUCUGGUGAAUCUGCGAAUUCUGCUGUAUAUCUC [A21C C23G],0.16
20,UAACAGGGGGCCACAGCAGACGCGUUCACGUCGCAGCCCCUGUCAGAUUCUGGUGAAUCUGCGAAUUCUGCUGUAAAUCUC [A21C U76A],0.1
21,UAACAGGGGGCCACAGCAGACGCGUUCACGUCGCAGCCCCUGUCAGAUUCUGGUGAAACUGCGAAUUCUGCUGUAUAUCUC [A21C U58A],0.16
22,UAACAGGGGGCCACAGCAGACGCGUUCACGUCGCAGCCCCUGUCUGAUUCUGGUGAAUCUGCGAAUUCUGCUGUAUAUCUC [A21C A45U],0.13
